{"source": "paper PMC2879526", "binders": {"B1": {"name": "non-specific 16-bp DNA (dsDNA)", "DNA 1": "CGATTTGAATTTTAAC", "DNA 2": "GTTAAAATTCAAATCG"}, "B2": {"name": "rrm1 16-bp (THABS) (dsDNA)", "DNA 1": "GCTTGTGTGGGCAGCG", "DNA 2": "CGCTGCCCACACAAGC"}}, "key": {"[1]": {"target": "T1, THAP zinc finger of hTHAP1 K24A (Homo sapiens, UniProt Q9NVV9 1-81, K24A)", "T1 sequence": "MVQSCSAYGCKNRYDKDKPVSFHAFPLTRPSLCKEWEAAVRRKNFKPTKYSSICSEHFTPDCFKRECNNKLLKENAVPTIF", "test": "fluorescence anisotropy"}, "[2]": {"target": "T2, THAP zinc finger of hTHAP1 (C62S/C67S) (Homo sapiens, UniProt Q9NVV9 1-81, C62S;C67S)", "T2 sequence": "T1 sequence with A24K, C62S, C67S", "test": "fluorescence anisotropy"}}, "note": "Changes are numbered by the printed parent chain."}
{"binder": "B1", "values": [{"measurement": "binding result", "setting": "[1]", "result": "binds"}]}
{"binder": "B2", "values": [{"measurement": "Kd", "setting": "[2]", "result": "480 ± 60", "unit": "nM"}]}
